Data from US20220204643A1 (published 2022).

What was measured:
Assay in all cases: protein array
[1] = target: T1, acyl-CoA binding domain containing 6 (human, UniProt Q9BR61 1-282)
T1 construct: on protein array; also called ACBD6
T1 sequence: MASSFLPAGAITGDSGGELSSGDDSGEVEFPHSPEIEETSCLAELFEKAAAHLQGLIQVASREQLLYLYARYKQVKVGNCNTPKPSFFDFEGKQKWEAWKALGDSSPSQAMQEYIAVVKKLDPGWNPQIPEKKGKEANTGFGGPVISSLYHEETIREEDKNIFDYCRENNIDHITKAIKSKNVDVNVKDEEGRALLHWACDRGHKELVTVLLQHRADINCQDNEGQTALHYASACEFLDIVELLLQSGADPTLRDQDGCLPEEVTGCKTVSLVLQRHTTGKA

[2] = target: T2, glyoxylate and hydroxypyruvate reductase (human, UniProt Q9UBQ7 1-328)
T2 construct: on protein array; also called GRHPR
T2 sequence: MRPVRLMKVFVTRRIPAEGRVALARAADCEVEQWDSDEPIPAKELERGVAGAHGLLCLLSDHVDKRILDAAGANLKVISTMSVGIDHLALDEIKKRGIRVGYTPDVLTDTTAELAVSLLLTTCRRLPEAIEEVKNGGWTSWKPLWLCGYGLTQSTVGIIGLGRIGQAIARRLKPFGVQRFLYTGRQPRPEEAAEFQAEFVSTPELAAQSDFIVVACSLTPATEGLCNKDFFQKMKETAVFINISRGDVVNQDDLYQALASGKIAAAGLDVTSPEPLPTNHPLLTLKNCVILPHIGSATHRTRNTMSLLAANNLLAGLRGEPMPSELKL

[3] = target: T3, proliferating cell nuclear antigen, transcript variant 1 (human, UniProt P12004 1-261)
T3 construct: on protein array; also called PCNA
T3 sequence (P12004 whole entry, change not shown): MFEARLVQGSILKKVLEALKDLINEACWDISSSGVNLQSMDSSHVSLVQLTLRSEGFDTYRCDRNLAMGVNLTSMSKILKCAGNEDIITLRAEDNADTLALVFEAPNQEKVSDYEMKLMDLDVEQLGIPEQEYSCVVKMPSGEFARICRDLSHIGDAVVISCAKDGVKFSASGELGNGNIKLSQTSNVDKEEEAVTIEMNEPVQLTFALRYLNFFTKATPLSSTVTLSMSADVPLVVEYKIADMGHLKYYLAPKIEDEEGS

[4] = target: T4, G antigen 2A (human, UniProt Q6NT46 1-116)
T4 construct: on protein array; also called GAGE2A
T4 sequence: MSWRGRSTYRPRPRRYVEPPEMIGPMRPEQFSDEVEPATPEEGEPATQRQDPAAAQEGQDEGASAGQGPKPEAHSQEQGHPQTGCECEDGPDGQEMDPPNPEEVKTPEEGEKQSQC

[5] = target: T5, influenza virus NS1A binding protein (human, UniProt Q9Y6Y0 1-642)
T5 construct: on protein array; also called IVNS1ABP
T5 sequence: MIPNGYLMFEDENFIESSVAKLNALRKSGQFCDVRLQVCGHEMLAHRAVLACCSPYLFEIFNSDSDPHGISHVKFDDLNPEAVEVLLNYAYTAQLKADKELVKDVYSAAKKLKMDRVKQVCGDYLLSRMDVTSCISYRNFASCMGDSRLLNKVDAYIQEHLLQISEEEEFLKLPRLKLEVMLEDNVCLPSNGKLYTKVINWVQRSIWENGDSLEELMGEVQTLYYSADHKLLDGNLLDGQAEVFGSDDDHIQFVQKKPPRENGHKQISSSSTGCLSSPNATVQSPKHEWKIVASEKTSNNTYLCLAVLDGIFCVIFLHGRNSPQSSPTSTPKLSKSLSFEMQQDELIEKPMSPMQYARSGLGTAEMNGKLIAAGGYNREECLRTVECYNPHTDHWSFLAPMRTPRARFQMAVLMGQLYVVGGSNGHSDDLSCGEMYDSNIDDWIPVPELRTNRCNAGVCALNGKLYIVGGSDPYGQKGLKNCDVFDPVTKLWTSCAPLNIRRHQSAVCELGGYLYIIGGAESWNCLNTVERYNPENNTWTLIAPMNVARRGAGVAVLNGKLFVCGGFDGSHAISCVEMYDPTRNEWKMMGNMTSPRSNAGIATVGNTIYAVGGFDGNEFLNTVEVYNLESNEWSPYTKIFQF

[6] = target: T6, BAF chromatin remodeling complex subunit BCL7C, transcript variant 2 (human, UniProt Q8WUZ0 1-217)
T6 construct: on protein array

[7] = target: T7, UTP6 small subunit processome component (human, UniProt Q9NYH9 1-597)
T7 construct: on protein array
T7 sequence: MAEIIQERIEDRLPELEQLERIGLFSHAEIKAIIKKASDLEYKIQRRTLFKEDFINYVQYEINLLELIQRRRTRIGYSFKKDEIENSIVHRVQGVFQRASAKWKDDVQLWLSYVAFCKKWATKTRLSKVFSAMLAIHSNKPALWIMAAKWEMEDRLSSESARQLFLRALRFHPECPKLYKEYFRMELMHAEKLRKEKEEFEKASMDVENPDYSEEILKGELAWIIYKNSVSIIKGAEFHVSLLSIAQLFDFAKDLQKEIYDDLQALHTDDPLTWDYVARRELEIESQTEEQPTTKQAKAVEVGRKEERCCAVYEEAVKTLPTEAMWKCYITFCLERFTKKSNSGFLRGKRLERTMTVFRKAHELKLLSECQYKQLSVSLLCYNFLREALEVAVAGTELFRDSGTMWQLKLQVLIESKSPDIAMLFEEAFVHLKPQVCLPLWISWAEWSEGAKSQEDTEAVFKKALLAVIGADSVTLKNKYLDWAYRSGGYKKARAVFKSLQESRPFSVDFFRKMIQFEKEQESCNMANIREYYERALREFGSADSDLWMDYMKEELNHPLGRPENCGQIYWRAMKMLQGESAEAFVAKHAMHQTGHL

[8] = target: T8, phosducin like (human, UniProt Q13371 2-301)
T8 construct: on protein array; also called PDCL
T8 sequence: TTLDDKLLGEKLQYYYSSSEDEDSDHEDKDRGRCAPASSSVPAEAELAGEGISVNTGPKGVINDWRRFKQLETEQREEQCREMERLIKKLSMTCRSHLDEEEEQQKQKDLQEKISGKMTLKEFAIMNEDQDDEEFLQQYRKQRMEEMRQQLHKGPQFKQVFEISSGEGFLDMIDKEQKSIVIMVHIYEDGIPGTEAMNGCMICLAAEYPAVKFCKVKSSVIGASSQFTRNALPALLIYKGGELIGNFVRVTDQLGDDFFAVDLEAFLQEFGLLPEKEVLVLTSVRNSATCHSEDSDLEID

[9] = target: T9, G protein-coupled receptor 4 (human, UniProt P46093 1-362)
T9 construct: on protein array; also called GPR4
T9 sequence (P46093 whole entry): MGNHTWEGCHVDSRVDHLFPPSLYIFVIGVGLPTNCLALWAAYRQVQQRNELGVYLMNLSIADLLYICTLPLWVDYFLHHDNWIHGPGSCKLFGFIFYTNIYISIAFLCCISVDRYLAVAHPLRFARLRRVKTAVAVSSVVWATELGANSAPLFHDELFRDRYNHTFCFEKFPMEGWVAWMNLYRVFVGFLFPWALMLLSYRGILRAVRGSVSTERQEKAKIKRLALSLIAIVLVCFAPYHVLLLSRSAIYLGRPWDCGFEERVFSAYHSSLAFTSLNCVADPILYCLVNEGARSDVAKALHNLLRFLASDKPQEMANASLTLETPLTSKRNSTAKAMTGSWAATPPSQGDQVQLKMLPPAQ

[10] = target: T10, Dexd-box helicase 52 (human, UniProt Q9Y2R4 1-599)
T10 construct: on protein array; also called DDX52
T10 sequence: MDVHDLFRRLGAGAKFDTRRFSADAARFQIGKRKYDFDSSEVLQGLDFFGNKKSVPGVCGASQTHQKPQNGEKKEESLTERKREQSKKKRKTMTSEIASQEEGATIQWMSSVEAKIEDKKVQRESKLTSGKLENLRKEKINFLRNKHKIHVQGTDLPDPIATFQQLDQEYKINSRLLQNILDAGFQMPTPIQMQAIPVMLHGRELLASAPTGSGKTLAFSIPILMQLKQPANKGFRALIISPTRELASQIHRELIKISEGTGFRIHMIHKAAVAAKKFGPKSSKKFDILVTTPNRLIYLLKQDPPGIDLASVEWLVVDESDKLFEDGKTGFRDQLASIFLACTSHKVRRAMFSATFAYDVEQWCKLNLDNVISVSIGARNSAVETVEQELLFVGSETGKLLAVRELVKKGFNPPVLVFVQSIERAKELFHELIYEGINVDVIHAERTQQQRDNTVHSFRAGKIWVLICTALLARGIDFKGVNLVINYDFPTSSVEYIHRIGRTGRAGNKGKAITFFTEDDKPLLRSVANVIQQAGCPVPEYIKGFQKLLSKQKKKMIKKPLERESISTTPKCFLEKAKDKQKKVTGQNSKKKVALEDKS

B1: TTES1006 (antibody, V domains shown)
VH: EVQLVESGGGLVQPGGSLRLSCAASGFTFSKFWMHWVRQAPGKGLVWLSRINTDGTVTTYADSVKGRFTISRDNAKSTLYLQMNSLRVEDTAVYYCAGGGSQVDFWGQGTLVTVSS
VL: PYELTQPPSVSVSPGQTASIACSGDNLGNKYAWWYRQKPGQSPVLVMYKDNKRPSGIPERFSGSNSGNTATLTISGTQAMDEADYYCQTWDSSTVIFGGGTKLTVQ
notes: VH/VL tied via antigen in summary, not by name in this stretch
B1: binds [1].

B2: TTES1004 (antibody, V domains shown)
VH: EVQLVESGGGLVQPGGSLRLSCVASGFTFSSYSMNWVRQAPGKGLKWVSYISSSRSTIYNADSVKGRFTISRDNAKKSLYLQMNSLRAEDTAVYYCARVSVAAPTCLDYWGQGTLVTVSS
VL: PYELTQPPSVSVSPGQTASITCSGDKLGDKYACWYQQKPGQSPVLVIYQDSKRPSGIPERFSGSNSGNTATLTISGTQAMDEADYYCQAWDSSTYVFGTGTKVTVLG
notes: as for B1
B2: binds [2].

B3: TTHY1002 (antibody, V domains shown)
VH: EVQVVESGGGLGQPGGSLRLSCAASGFTFSSYSMNWVRQAPGKGLEWVSYISSSSSTKYYADSVKGRFTISRDNAKKSLYLQMNSLRDEDTAVYYCASPVRPWGQGTLVTVSS
VL: EIVMTQSPATLSVSPGERATLSCRASQSVSSNLAWYQQKPGQAPRLLIYGASTRATGIPARFSGSGSGTEFTLTISSLQSEDFAIYYCQQYNSWPAFGGGTKVEIK
notes: as for B1
B3: binds [3].

B4: TTES1012 (antibody, V domains shown)
VH: EVQLVESGGGLVQPGGSLRLSCAASGFTFSSYWMTWVRQAPGKGLEWVANIKQDGSEKYYVDSVKGRFTISRDNSKNSLYLQMNSLRAEDTAVYYCARAGYDLFGWFDPWGQGTLVTVSS
VL: SYELTQPPSVSVSPGQTARITCSGDALPKQYAYWYQQKPGQAPVLVIYKDSERPSGIPERFSGSSSGTTVTLTISGVQAEDEADYYCQSADSSGTYVFGTGTKVTVLG
notes: as for B1
B4: binds [4].

B5: TTHY1003 (antibody, V domains shown)
VH: QVQLVQSGAEMKKPGTSVKVSCRTSGYIFTGSFMHWVRQAPAQGLEWMGWINPKTGATYYTEKFKGRVTLTRDTSINTAYMEMTSLRSDDTAVYYCARGFCDLPACYPVPQYNWFDPWGQGTLVTVSS
VL: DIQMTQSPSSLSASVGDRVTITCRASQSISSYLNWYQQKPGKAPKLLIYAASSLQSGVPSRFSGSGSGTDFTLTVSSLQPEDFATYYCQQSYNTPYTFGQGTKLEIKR
notes: as for B1
B5: binds [5]; binds [6].

B6: TUCE1005 (antibody, V domains shown)
VH: QVQLQESGPGLVKPSETLSLTCTVSGGSISSYYWSWIRQPAGKGLEWIGRIYTSGSTNYNPSLKSRVTMSVDTSKNQFSLKMSSVTAADTAVYYCARGELLFDHWGQGTLVTVSS
VL: not shown
notes: as for B1
B6: binds [7].

B7: TTES1007 (antibody, V domains shown)
VH: QITLKESGPTLVKPTQTLTLTCTFSGFSLTTTGVGVGWIRQPPGKALEWLALIYWDDDKRYSPSLKSRLIITKDTSKNQVVLTMTNMDPVDTATYYCAHRFGRGVSYYYYGMDVWGQGTTVTVSS
VL: not shown
notes: as for B1
B7: binds [8].

B8: TTES1008 (antibody, V domains shown)
VH: QVQLVESGGGVVQPGRSLRLSCAASGFIFSSYGMHWVRQAPGKGLEWVAVISYDGSNKYYADSVKGRFTISRDKSKNTLHLQMNSLRAEDTAVYYCAKDSGSNDDMDVWGKGTTVTVSS
VL: QSVLTQPPSVSAAPGQKVTISCSGSSSNIGNNYVSWYQQLPGTAPKLLIYDNNKRPSGIPDRFSGSKSGTSATLGITGLQTGDEADYYCGTWDSSLSAGVFGTGTKVTVLG
notes: as for B1
B8: binds [9]; binds [10].
